Laboratory results taken from patent US20260125649A1, “MEDIUM COMPOSITION AND METHOD FOR CULTURING MESENCHYMAL STEM CELLS” (ACADEMIA SINICA, priority 2018, published 2026).

Experiments:
[1] = test system: cyclin A2, cyclin D1, cyclin D2, cyclin D3, cyclin E1, CDK4, CDK9, Oct4, Sox2, c-Myc, Lin28; assay: Western blotting of cell cycle regulators and pluripotency factors in MSCs; assay type: cell-based, human; conditions: EpEX 3 μg/mL
Protocol: The proliferation of MSCs was examined by measuring doubling time. MSCs were treated with EpEX (3 μg/mL) for 24 and 48 h. Cell number was counted and then doubling time was calculated. MSCs were treated with EpEX (3 μg/mL) for the indicated times. After treatment, protein expression of cell cycle regulators (cyclin D1, cyclin D2, cyclin D3, cyclin E1, CDK4 and CDK9) and pluripotency factors (Oct4, Sox2, c-Myc, and Lin28) was examined by Western blotting.
Phospho-EGFR (Tyr845) was detected by Western blotting. […] After treatment, cell cycle progression was investigated by flow cytometry with PI staining. Fraction of cells in each phase (G1, S, G2/M) of the cell cycle was evaluated. Cells that expressed EGFR shRNA or shLuc were treated with EpEX for 18 h. After treatment, cell cycle progression was investigated by flow cytometry with PI staining. Fraction of cells in each phase (G1, S, G2/M) of the cell cycle was evaluated. […]
After treatment, the protein levels of total STAT3 and phospho-STAT3 (Tyr705) were examined by Western blotting. […] Fraction of cells in each phase (G1, S, G2/M) of the cell cycle was evaluated. […] Fraction of cells in each phase (G1, S, G2/M) of the cell cycle was evaluated. […]
The expression of let-7 was detected by qPCR. […] The expression of let-7 was detected by qPCR. […]

RUNX2 = RUNX2 gene expression by qPCR during osteo-induction; assay type: cell-based, human; conditions: EpEX in osteogenetic medium
Protocol: Calcium precipitation was measured by Alizarin Red S (ARS) staining to probe the efficiency of osteogenesis. […] Quantification of osteogenesis, as measured by ARS staining, is shown for each group. MSCs were induced by osteogenetic medium and treated with EpEX at indicated doses. The gene expression of RUNX2 was examined by qPCR. […] ARS staining was performed to check the efficiency of osteogenesis. MSCs were pretreated with let-7 inhibitor and then treated with EpEX for 14 days during osteo-induction. ARS staining was performed to check the efficiency of osteogenesis. […] RUNX2 gene expression was measured by qPCR. MSCs were pretreated with let-7 inhibitor and induced by EpEX. RUNX2 gene expression was examined by qPCR. […] Upon EpEX stimulation, phosphorylation of EGFR-STAT3 signaling is induced and subsequently upregulates the level of Lin28 which inhibits let-7. […]
Total RNA was extracted using TRI reagent (Invitrogen, CA, USA), and 5 μg of total RNA was reverse transcribed using oligo (dT) primer (Fermentas, Glen Burnie, MD, USA) with SuperScript III reverse transcriptase (Invitrogen). Quantitative real time RT-PCR (qPCR) was performed on cDNA using the Light Cycler 480 SYBR Green I Master kit (Roche Applied Science, Indianapolis, IN) and the LightCycler480 System (Roche Applied Science). […]

B1: EpEX: extracellular domain of human EpCAM, 265 amino acids in length (SEQ ID NO: 2) (protein, listed as Homo sapiens)
chain: MAPPQVLAFGLLLAAATATFAAAQEECVCENYKLAVNCFVNNNRQCQCTSVGAQNTVICSKLAAKCLVMKAEMNGSKLGRRAKPEGALQNNDGLYDPDCDESGLFKAKQCNGTSMCWCVNTAGVRRTDKDTEITCSERVRTYWIIIELKHKAREKPYDSKSLRTALQKEITTRYQLDPKFITSILYENNVITIDLVQNSSQKTQNDVDIADVAYYFEKDVKGESLFHSKKMDLTVNGEQLDLDPGQTLIYYVDEKAPEFSMQGLK
protein expression of cell cycle regulators (cyclin A2, D1, D2, D3, E1, CDK4, CDK9) [1]: significantly increased
protein expression of pluripotency markers (Oct4, Sox2, c-Myc, Lin28) [1]: significantly increased
RUNX2 transcript level (RUNX2): increased
